Source: publication PMC4906247

B1: hDAPK2 CD + ARD wild type (pETM14 construct for SEC, SAXS, CaM pull-down and FA) [human] / itself (parent)
chain: NMEPFKQQKVEDFYDIGEELGSGQFAIVKKCREKSTGLEYAAKFIKKRQSRASRRGVSREEIEREVSILRQVLHHNVITLHDVYENRTDVVLILELVSGGELFDFLAQKESLSEEEATSFIKQILDGVNYLHTKKIAHFDLKPENIMLLDKNIPIPHIKLIDFGLAHEIEDGVEFKNIFGTPEFVAPEIVNYEPLGLEADMWSIGVITYILLSGASPFLGDTKQETLANITAVSYDFDEEFFSQTSELAKDFIRKLLVKETRKRLTIQEALRHPWITPVDNQQAMVRRESVVNLENFRKQYVRRRWKLSFSIVSLCNHLTR

Variants of: B1
Test: analytical size-exclusion chromatography (SEC)
Conditions: with itself

| screen value [kDa] | Variant |
| --- | --- |
| 4410 | chain 1 R48E R51E R54E R55E |
